# From the supplement of paper PMC7125110
# ± gives the standard error. For part of these data: This sample holds only a part of the variants without activity.
# B1: glmS ribozyme (parent)
# chain: AUAAAAGCGCCAGAACUACAGAAAUGUAGUUGACGAGGAGGAGGUUUAUCGAAUUUUCGGCGGAUGCCUCCAAA
# What was measured:
# Conditions in all cases: with glucosamine-6-phosphate
# [1] = variants of: B1; experiment: kcat; higher = faster cleavage; RNA array
# Outline: (§1)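 Tiles of sequenced MiSeq chips were imaged over ~14 h at 37 °C. On them, barcoded ribozyme variants had been transcribed in situ by E. coli RNA polymerase and were tracked via a hybridised Cy3 probe while glucosamine-6-phosphate (40 μM to 10 mM) in HEPES/KCl/Mg(OAc)2 buffer flowed in. Per-tile medians, normalised to baseline and to non-cleaving reference variants, were fit to one- or two-exponential decays for kobs, and weighted Michaelis–Menten fits gave kcat and KM.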
# [2] = variants of: B1; experiment: KM; higher = weaker cofactor use; RNA array
# Outline: as §1
# [3] = variants of: B1; experiment: self-cleavage kobs at 40 uM GlcN6P; higher = faster cleavage; RNA array
# Outline: as §1
# [4] = variants of: B1; experiment: self-cleavage kobs at 2500 uM GlcN6P; higher = faster cleavage; RNA array
# Outline: as §1
# [5] = variants of: B1; experiment: self-cleavage kobs at 10000 uM GlcN6P; higher = faster cleavage; RNA array
# Outline: as §1
# [6] = variants of: B1; experiment: self-cleavage kobs at 640 uM GlcN6P; higher = faster cleavage; RNA array
# Outline: as §1
# [7] = variants of: B1; experiment: self-cleavage kobs at 160 uM GlcN6P; higher = faster cleavage; RNA array
# Outline: as §1
Variant,kcat [1] [s⁻¹],KM [2] [µM],self-cleavage kobs at 40 uM GlcN6P [3] [s⁻¹],self-cleavage kobs at 2500 uM GlcN6P [4] [s⁻¹],self-cleavage kobs at 10000 uM GlcN6P [5] [s⁻¹],self-cleavage kobs at 640 uM GlcN6P [6] [s⁻¹],self-cleavage kobs at 160 uM GlcN6P [7] [s⁻¹]
A15U A33C,5.35e-05 ± 2.5e-06,813 ± 280,< 1e-05,4.34e-05 ± 1.3e-05,4.91e-05 ± 6e-06,–,–
A12C U57A,0.000102 ± 2.4e-05,–,–,6.14e-05 ± 1.2e-05,0.000113 ± 1.9e-05,5.75e-05 ± 1.5e-05,–
A12C U57C,0.000312 ± 5.1e-05,4850 ± 1600,–,9.32e-05 ± 1.7e-05,0.000214 ± 2.2e-05,4.73e-05 ± 1.2e-05,–
A6C C10U C67G U69A,2.09e-05 ± 8.6e-06,–,–,–,–,–,–
G44U C70U,3.72e-05 ± 5.6e-06,–,< 1e-05,3.43e-05 ± 1.1e-05,3.29e-05 ± 6.6e-06,–,< 1e-05
C50A C68U,1.77e-05 ± 3.7e-06,–,–,–,–,–,–
C11A A52U C67G,2.85e-05 ± 4.6e-06,–,–,–,–,–,–
G32A C70G,0.000111 ± 1.6e-05,–,–,6.07e-05 ± 2.4e-05,0.00011 ± 1.3e-05,9.43e-05 ± 1.5e-05,2.97e-05 ± 1.1e-05
A14U U69A,0.000113 ± 2e-05,802 ± 390,–,7.13e-05 ± 1.7e-05,0.000122 ± 2.4e-05,5.17e-05 ± 1.1e-05,–
C11A U57G,< 1e-05,–,–,–,–,–,< 1e-05
U31C A39C,0.00127 ± 0.00014,2620 ± 500,3.17e-05 ± 7.1e-06,0.00058 ± 5.1e-05,0.00102 ± 6.7e-05,0.000259 ± 2.4e-05,6.64e-05 ± 9.6e-06
C16U A53G,0.0256 ± 0.012,–,0.00111 ± 0.00015,0.013 ± 0.0042,0.0282 ± 0.0061,0.0112 ± 0.0028,0.00153 ± 0.00061
C11G A33U,< 1e-05,–,–,< 1e-05,–,–,< 1e-05
U55G C58A,0.000783 ± 0.00021,7730 ± 3000,–,0.000177 ± 2.2e-05,0.000461 ± 6.3e-05,6.45e-05 ± 1e-05,2.76e-05 ± 1.3e-05
U46G C67U,0.00338 ± 0.0012,1200 ± 590,0.000125 ± 1.7e-05,0.00176 ± 0.00028,0.00457 ± 0.00079,0.00143 ± 0.00015,0.000317 ± 5.3e-05
U65A U69G,5.5e-05 ± 1.5e-05,–,–,8.3e-05 ± 1.9e-05,–,4.35e-05 ± 1.4e-05,7.34e-05 ± 1.9e-05
C50U C70U,4.57e-05 ± 5.9e-07,154 ± 18,–,4.25e-05 ± 8.3e-06,4.51e-05 ± 7.2e-06,3.85e-05 ± 1.4e-05,–
